# Measured values as given in patent publication US20180030135A1, “HUMAN MONOCLONAL ANTIBODIES AGAINST OREXIN RECEPTOR TYPE 1” (INSERM (INSTITUT NATIONAL DE LA SANTÉ ET DE LA RECHERCHÉ …, priority 2015, published 2018).
# Where a chain is given by its changes, count along the chain named.
# T1: rat OX1R (rat, UniProt P56718 1-416)
# T1 construct: whole, on cells; also called CHO-ratOX1R; OX1R of rat
# T1 sequence (looked up): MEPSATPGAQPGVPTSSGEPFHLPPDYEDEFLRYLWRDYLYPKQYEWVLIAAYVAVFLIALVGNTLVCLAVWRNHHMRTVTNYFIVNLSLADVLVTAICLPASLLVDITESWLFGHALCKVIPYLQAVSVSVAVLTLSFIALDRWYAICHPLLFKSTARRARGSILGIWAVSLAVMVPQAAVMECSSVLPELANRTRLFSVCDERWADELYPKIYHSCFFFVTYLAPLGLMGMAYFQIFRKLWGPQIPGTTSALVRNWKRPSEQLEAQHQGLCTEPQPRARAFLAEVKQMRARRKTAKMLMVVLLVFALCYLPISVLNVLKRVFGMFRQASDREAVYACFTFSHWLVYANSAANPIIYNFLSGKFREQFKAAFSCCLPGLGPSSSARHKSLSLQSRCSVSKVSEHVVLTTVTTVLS
# T2: mouse OX1R (mouse, UniProt P58307 1-416)
# T2 construct: whole, on cells; Legend says HEK-mouseOX1R, the text says CHO cell lines transfected with OX1R of mouse or rat; also called HEK-mouseOX1R; OX1R of mouse
# T2 sequence (looked up): T1 sequence (looked up) with H116Q, R205H, F221I, G232A, P245R, S383G
# T3: orexin receptor type 1 (OX1R) (human, UniProt O43613 1-425)
# T3 construct: whole, on cells; also called HCTR1; hypocretin receptor type 1
# T3 sequence (looked up): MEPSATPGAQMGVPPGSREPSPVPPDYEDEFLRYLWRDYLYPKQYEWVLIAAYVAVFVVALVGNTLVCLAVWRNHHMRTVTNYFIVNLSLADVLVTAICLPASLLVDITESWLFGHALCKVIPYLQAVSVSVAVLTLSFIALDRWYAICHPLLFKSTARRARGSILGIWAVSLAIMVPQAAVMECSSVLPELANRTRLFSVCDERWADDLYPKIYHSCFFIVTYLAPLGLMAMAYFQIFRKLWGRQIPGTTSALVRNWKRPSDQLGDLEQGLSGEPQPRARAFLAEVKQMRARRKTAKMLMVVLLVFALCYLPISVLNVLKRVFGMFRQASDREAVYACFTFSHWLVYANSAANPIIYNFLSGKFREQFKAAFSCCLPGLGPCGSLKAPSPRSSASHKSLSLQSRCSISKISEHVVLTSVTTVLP
# B1: C1 antibody (antibody, V domains shown)
# VH: EVQLVESGGSLVKPGGSLRLSCAASGFTFSNYYMNWVRQAPGKGLEWISYISGSSRNIYYADFVKGRFTISRDNATNSLYLQMNSLRAEDTAVYYCVRSNYDGMDVWGRGTLVTVSS
# VL: QSVLTQPASVSGSPGQSITISCAGTSSDVGGSNYVSWYQQHPGKAPKLMIYSDSYRPSGVSNRFSGSKSGNTASLTISGLQAEDEADYYCSSYTYYSTRVFGGGTKLAVLG
# notes: Human anti-OX1R antibody from phage display
# B2: C1: human monoclonal anti-OX1R antibody from phage display; VH SEQ ID NO:1, VL SEQ ID NO:2 (antibody, V domains shown)
# VH: B1 VH
# VL: B1 VL
# modifications: Synthetic VH sequence of C1; Synthetic VL sequence of C1
# What was measured:
# rat OX1R = biological target: T1, rat OX1R; assay: told from effects on cells transfected with rat OX1R (FIG. 4)
# mouse OX1R = biological target: T2, mouse OX1R; assay: told from effects on cells transfected with mouse OX1R (FIG. 4)
# [1] = biological target: T3, orexin receptor type 1 (OX1R); assay: competitive inhibition of 125I-OxA binding to HEK-OX1R cells
# AsPC-1 cells = assay: Cell growth of pancreas cancer cell line AsPC-1; type: cell-based; settings: 0.1 μM, 48 h
# Protocol: (§1) A. SW48 and AsPC-1 cells. B. LoVo and HCT-116 cells. Cells were treated for 48 h with 0.1 μM of each compound and then cells were counted. Results were expressed as the percentage of untreated cell number (Control).
# (§2) We have tested the ability of antibodies to inhibit the cellular growth in cancer cell lines derived from colon cancer (SW48, LoVo and HCT-116 cells) and pancreas cancer (AsPC-1 cells). […] D4 and H7 have a weak effect. […] As previously described (see above) orexins are able to induce a mitochondrial apoptosis in cancer cell lines. We test the ability of antibodies to induce apoptosis in HEK-OX1R cells and colonic cancer cell line LoVo. […] This effect was dose-dependent. Indeed when HEK-OX1R cells were treated with 0.01μM of C2 antibody, cell apoptosis was only of 6±0.7% of total cells.
# HEK-mouseOX1R = assay: Cell growth / apoptosis of cells transfected with mouse OX1R; type: cell-based; settings: 0.1 μM, 48 h, FIG. 4
# Protocol: Cells were treated for 48 h with 0.1 μM of each compound and then cells were counted. Results were expressed as the percentage of untreated cell number (Control).
# The development of antibodies directed against OX1R were produced by a phage display strategy and the antibody selection was performed by using HEK and HEK stably expressing OX1R (HEK-OX1R) cell lines. As a first step, a batch of 7 different antibodies named B4, B10, C1, C2, D4, E7 and H7 was tested for their ability to inhibit the cell growth of HEK-OX1R. […] In contrast, B4, B10, D4, E7 and. […] As previously described orexins (A & B) induced a mitochondrial apoptosis mediated by an entirely novel mechanism, not related to Gq-mediated phospholipase C activation. In fact, orexins induced the tyrosine phosphorylation of two immunoreceptor tyrosine-based inhibitory motifs (ITIMs) located in the OX1R sequence. The resulting phosphorylated receptor could then recruit and activate the phosphotyrosine phosphatase, SHP-2, which is responsible for mitochondrial apoptosis, involving cytochrome c release from mitochondria to cytosol and caspase-3 and caspase-7 activation. Here, we tested the effect of SHP inhibitor (NSC 87877) on the ability of anti-OX1R to inhibit the cellular growth of HEK-OX1R (FIG. 3).
# [2] = system: HEK-OX1R cells expressing recombinant OX1R; assay: Apoptosis in HEK-OX1R cells (annexin V-PE binding, Guava nexin kit); type: cell-based, human; settings: 0.1 μM, 48 h
# [3] = system: HEK-OX1R cells expressing recombinant OX1R; assay: Cell growth of HEK-OX1R cells (cell counting); type: cell-based, human; settings: 0.1 μM, 48 h
# LoVo cells = assay: Cell growth of colon cancer cell line LoVo; type: cell-based; settings: 0.1 μM, 48 h
# Protocol: as §1, §2
# SW48 cells = assay: Cell growth of colon cancer cell line SW48; type: cell-based; settings: 0.1 μM, 48 h
# Protocol: as §1, §2
# CHO-ratOX1R = assay: Cell growth / apoptosis of cells transfected with rat OX1R; type: cell-based; settings: 0.1 μM, 48 h, FIG. 4
Molecule,binding result (rat OX1R),binding result (mouse OX1R),IC50 [1] [µM],cell growth inhibition in AsPC-1 cells (AsPC-1 cells),promotion of apoptosis of cells transfected with OX1R of mouse (cross reaction) (HEK-mouseOX1R),"apoptosis in HEK-OX1R cells, % of total cells [2] [%]",inhibition of HEK-OX1R cellular growth in the presence of SHP inhibitor NSC 87877 ([3]; 50 μM NSC 87877),"reduction of HEK-OX1R cell number (cellular growth inhibition) ([3]; cells counted, versus untreated cells)",cell growth inhibition in LoVo cells (LoVo cells),cell growth inhibition in SW48 cells (SW48 cells),promotion of apoptosis of cells transfected with OX1R of rat (cross reaction) (CHO-ratOX1R)
B1,binds,binds,~5,,,,,,,,
B2,,,,cell growth inhibition similar to OxB effect,able to promote apotosis,12±1,totally reversed,about 46%±3,inhibit the cell growth in LoVo cells similarly to OxB,inhibit the cell growth in SW48 cells similarly to OxB,able to promote apotosis
